Experiments:
human macrophages [1] = assay: Viability, CAR expression and M1/M2 markers of HER2 CAR mRNA electroporated macrophages cultured with cytokines; type: cell-based; conditions: mRNA transfected CAR macrophages
Protocol: Human macrophages were electroporated with HER2 CAR mRNA comprising m6AGCap1 and PsU modifications. Cells were cultured with cytokines that induce an M1 phenotype such as IFN-alpha, IFN-beta, IFN-gamma, IFN-gamma plus lipopolysaccharide (LPS), TNF-alpha, IL-6 or a STING ligand (STING-L) for up to 48 hours and then cytokines were washed off and fresh media was added. CAR expression and M1 marker expression were measured on days 2 and 7 after transfection. Fluorescent labeled HER2+ breast cancer cells (CRL2351) were co-cultured with HER2 CAR macrophages two days after the macrophages were transfected. Cancer cell growth was monitored via its fluorescence on an Incucyte® live imaging microscope every four hours. The Effector (CAR macrophage) to Target (cancer cell) ratio was 5:1.
Five different mRNA modifications were also tested to determine if interferon treatment differentially affected macrophages transfected with mRNA comprising different modifications. Human macrophages were electroporated with HER2 CAR mRNA comprising different mRNA modifications. CAR expression and M1 markers were detected by Flow Cytometry (Attune) on day four after electroporation. Day 4 CAR macrophage cells were then co-cultured with a Nuc-Light labeled, HER2+ breast cancer cell line (CRL2351) at an Effector (CAR macrophage) to Target (cancer cell) ratio of 5:1. Cancer cell growth was monitored via its fluorescence on an Incucyte® live imaging microscope every four hours.
Human macrophages were electroporated with 300 nM CAR mRNA comprising m6AGCap1 and PsU modifications. Cells were cultured with 20 ng/mL IFNs for 24 hours and then the cells were washed to remove cytokines. CAR expression was detected by Flow Cytometry (Attune) on day 2 after transfection. Cells were then co-cultured with a Nuc-Light labeled, HER2+ breast cancer cell line (CRL2351) at the Effector to Target ratio of 3:1. Cancer cell growth was monitored via its fluorescence on an Incucyte® live imaging microscope. CAR expression and M1 markers in macrophages were detected by Flow Cytometry (Attune) on day 7 after transfection.

[2] = test system: HER2+ breast cancer cells (CRL2351); assay: Cytokine secretion of interferon treated HER2 CAR macrophages in co-culture (MSD); type: cell-based, human; conditions: 150 nM CAR mRNA, E:T 3:1, 48 hours co-culture
Protocol: Human macrophages were electroporated with 150 nM HER2 CAR mRNA comprising m6AGCap1 and PsU modifications. HER2+ breast cancer cells (CRL2351) were co-cultured with CAR macrophages after the macrophages were transfected with the CAR mRNA at an Effector (CAR macrophage) to Target (cancer cell) ratio of 3:1. Supernatant was collected 48 hours after the cancer cells and macrophages were co-cultured and cytokine levels were measured using a Meso Scale Discovery (MSD) instrument.

human macrophages [3] = assay: mCherry mRNA expression in transfected macrophages (Incucyte); type: cell-based; conditions: mCherry mRNA (m6AGCap1 and PsU or N1mPsU), one day, different doses
Protocol: Human macrophages were transfected with mCherry mRNA comprising m6AGCap1 and PsU or N1mPsU modifications and were then cultured for one day with different doses of IFN-γ. mCherry expression was monitored on an Incucyte® live imaging microscope.
In order to determine whether an RNaseL inhibitor could rescue IFN-γ-induced instability of transfected mRNA, human macrophages were treated with 1 μM sunitinib (an RNaseL inhibitor) two hours prior to the transfection of mCherry mRNA comprising m6AGCap1 and PsU modifications. Transfected cells were then cultured for one day with different dosages of IFN-γ. mCherry expression was monitored on an Incucyte® live imaging microscope.
The effect of another RNaseL inhibitor (RLI or ABCE1) was also tested to further validate the concept. Human macrophages were co-transfected with mRNA encoding mCherry comprising m6AGCap 1 and PsU modifications and with mRNA encoding ABCE1.

[4] = test system: Her2-Zeta CAR expressing macrophages; assay: M1 and M2 surface marker expression after agonist priming (flow cytometry); type: cell-based, human; conditions: mRNA transduced CAR macrophages, 3 days on agonist coated wells
Protocol: (§1) To generate Her2-Zeta CAR expressing macrophages, primary human macrophages were suspended in EP buffer (MaxCyte) containing 300 nM mRNA (TriLink) at a concentration of 90×10^6 cells/mL. 100 μL of cell mixture was added to an electroporation cassette (OC100×2; MaxCyte) and electroporated using the Experimental T cell 1 setting. Cells were removed from the cassette, plated in 3 mL of TexMACS media (Miltenyi Biotech) containing 20% FBS (Gibco) on UpCell plates (Thermo Scientific), and incubated overnight at 37 C and 5% CO2.
(§2) Recombinant CD40 ligand (Peprotech), 4-1BB ligand (Enzo Life Sciences), and 4-1BB receptor (Peprotech) were resuspended in molecular grade water to a stock concentration of 100 μg/mL. Stock solution was then used to create working solutions in PBS ranging from 2-0.002 μg/mL. 100 uL of working solution was added to wells in a 96-well plate and left at room temperature for 4 h.
For detection of cell surface proteins, macrophages were plated onto wells coated with agonist molecules in a final volume of 200 uL TexMACS media+10% FBS+10 ng/mL GM-CSF and incubated for 3 days at 37 C and 5% CO2. Cells were incubated in 300 μL Accutase (Sigma) for 30 min and transferred to 96-well round bottom plate for staining. Cells were incubated in FACS buffer containing 20 μg/mL Her2-His for 20 min at RT, followed by incubation in Human TruStain FcX for 10 min at RT. […]

[5] = test system: CRL-2351 cells expressing nuclear GFP; assay: Tumor cell killing by macrophages primed on agonist coated plates (Incucyte); type: cell-based, human; conditions: plate-coated agonist, 3 h priming
Protocol: as §1, §2
Plates were removed from the incubator and left at room temperature for 30 min. Cells were detached from plate, counted using the NC-200 automated cell counter (Chemomtech), and re-suspended in TexMACS media with 10% FBS. […] Cell lysis was detected using Incucyte® analysis (Essen Bioscience). Tumor cell death was calculated by integrated GFP intensity per well relative to time 0.

Row | Molecule | M1 phenotype (based on CD86 expression) (human macrophages [1]) | M2 markers (based on CD163 expression) (human macrophages [1]) | secretion of the cytokines IL-6, IL-8 and TNFα [2] | mCherry expression (human macrophages [3]) | M1 phenotype (expression of M1 and M2 markers) [4] | tumor killing ability of macrophages and CAR macrophages [5]
1 | IFN-α | induction of an M1 phenotype | reduction of M2 markers | increased secretion | – | – | –
2 | IFN-γ: interferon cytokine that induces an M1 phenotype (protein, UniProt P01579 24-161, looked up) Interferon gamma: QDPYVKEAENLKKYFNAGHSDVADNGTLFLGILKNWKEESDRKIMQSQIVSFYFKLFKNFKDDQSIQKSVETIKEDMNVKFFNSNKKKRDDFEKLTNYSVTDLNVQRKAIHELIQVMAELSPAAKTGKRKRSQMLFRG | induction of an M1 phenotype | reduction of M2 markers | increased secretion | reduced mCherry mRNA expression | – | –
3 | CD40L: Recombinant CD40 ligand (Peprotech), CD40 agonist (protein, UniProt P29965 113-261, looked up) CD40 ligand, soluble form: MQKGDQNPQIAAHVISEASSKTTSVLQWAEKGYYTMSNNLVTLENGKQLTVKRQGLYYIYAQVTFCSNREASSQAPFIASLCLKSPGRFERILLRAANTHSSAKPCGQQSIHLGGVFELQPGASVFVNVTDPSQVSHGTGFTSFGLLKL | – | – | – | – | induced an M1 phenotype | significantly improved the tumor killing ability

From US11739297B2, “Method of increasing tumor killing activity of macrophages or monocytes comprising chimeric antigen receptor” (Carisma Therapeutics Inc., priority 2020, dated 2023)
